Experimental data from PMC13082707, “Role of the C-terminal modules of Klebsiella phage KP32 receptor-binding protein gp38 in protein and phage functionality” (PLOS Pathogens, 2026).

Legend:
[1] = target: KP32gp38_LIN-CBM-LEC (Klebsiella phage KP32); assay: SEC-MALS; SEC-MALLS of selected KP32gp38 variants to assess the molecular weight of their oligomeric state, buffer and concentrations not told
[2] = target: KP32gp38_ΔLEC (Klebsiella phage KP32); assay: as above
[3] = target: KP32gp38_ΔLEC (Klebsiella phage KP32)
[4] = target: KP32gp38_CP-E_K11gp0043_LIN-CBM-LEC (Klebsiella phage KP32 | Klebsiella phage K11); assay: SEC-MALS; SEC-MALLS of selected KP32gp38 variants to assess the molecular weight of their oligomeric state, buffer and concentrations not told
[5] = target: KP32gp38_LEC (Klebsiella phage KP32); assay: as above
[6] = target: KP32gp38_CP-E-LIN_K11gp0043_CBM-LEC (Klebsiella phage KP32 | Klebsiella phage K11); assay: as above
[7] = target: KP32gp38_Δ(LIN-CBM) (Klebsiella phage KP32); assay: as above
[8] = target: GFP_KP32gp38_LIN-CBM-LEC (Klebsiella phage KP32); assay: as above
[9] = target: KP32gp38_ΔCBM (Klebsiella phage KP32); assay: as above
[10] = target: the molecule itself; assay: as above

## KP32gp38_LIN-CBM-LEC (domain or fragment)
[1]
  stoichiometry N: 3

## KP32gp38_ΔLEC (domain or fragment)
[2]
  percent dimers: 10%
  stoichiometry N: 2
[3]
  enzymatic activity (halo formation on K21/KL163 lawns) compared to the WT: 1000 fold

## KP32gp38_CP-E_K11gp0043_LIN-CBM-LEC
[4]
  stoichiometry N: 3

## KP32gp38_LEC (domain or fragment)
[5]
  stoichiometry N: > 25

## KP32gp38_CP-E-LIN_K11gp0043_CBM-LEC
[6]
  stoichiometry N: 3

## KP32gp38_Δ(LIN-CBM) (domain or fragment)
[7]
  stoichiometry N: 3

## GFP_KP32gp38_LIN-CBM-LEC (domain or fragment)
[8]
  stoichiometry N: 3

## KP32gp38_ΔCBM (domain or fragment)
[9]
  stoichiometry N: 3

B1: KP32gp38_WT, receptor-binding protein 2 (RBP2) of Klebsiella phage KP32 (natural protein, UniProt D1L2X1 1-576, looked up)
chain: MLDNFNQPKGSTIGVLKDGRTIQEAFDSLPRLESFSGSTATDKLRAAITLGVSEVAIGPVEGNGGRPYEFGDVVIPYPLRIVGCGSQGINVTKGTVLKRSAGASFMFHFTGEGQAQRPMGGGLFNINLNGDTATALGDIIKVTQWSYFKANNCAFQNMAGWGIRLKDVMESNISGNLFRRLGGPSGGGILFDDVRSAVTDNVNNLHIEDNTFALMSGPWIGSTANSNPDLIWIVRNKFEFDGTPAAPNTVDSYVLDFQQLSRAFIQDNGFTHFTTERNRYVGVLRVGATAVGTIKFEDNLLFACESAGLIAGGIVVSRGNVNNQGSATTAIKQFTNTSSKLCKLERVINVQSNGNVSVGQQILPDGYINMAELPGNTRLPSEYDADGETTSVLRVPANTQVRQWSVPKMYKDGLTVTKVTVRAKGAAAGAILSLQSGSTVLSTKSIDAGVWKNYVFYVKANQLQETLQLRNTGTADVLADGMVFGKVDYIDWDFAIAPGTLAAGAKYTTPNQSYLDVAGMRVQAVSIPMFDGPTTGLQVWVEATSANGSFVVVMKNDTGSELVTTVTRCRVRAFVS
notes: KP32gp38 (RBP2, capsule depolymerase/tailspike) of Klebsiella phage KP32; domains CP-E-LIN-CBM-LEC; Expressed from pVTD3 (C-terminal His-tag); also called KP32gp38 WT depolymerase; source: E. coli BL21(DE3), purified (His GraviTrap or HisPur Ni-NTA)
[10]
  stoichiometry N: 3
